The values that follow come from paper PMC9456352.

Assay [1] concerns the target ETE/P186G mutant (Staphylococcus aureus). The experiment in a line: not stated; shown in Figure S5 (not shown); the methods tell SEC of ETE/P186G in 20 mM MES pH 7.0, 150 mM NaCl and BN-PAGE of peak fractions.
In assay [2] the target is Staphylococcus aureus exfoliative toxin E (Staphylococcus aureus). The experiment in a line: SAXS; 5 mg/mL ETE in 20 mM MES pH 7.0, 150 mM NaCl, 25 °C; pair distance distribution by indirect Fourier transform.
For assay [3] the target is unchanged. As to the kind of experiment: native gel or EMSA; BN-PAGE 15%, 30 ug protein, running buffer 25 mM Tris pH 8.3, 192 mM glycine; BSA monomer and bovine beta-trypsin as markers; Coomassie stain. On the technique in general: In EMSA bound probe runs differently from free probe, usually more slowly.
Assay [4] shares this target. As to the kind of experiment: SEC; Superdex G75 10/300 GL, 0.7 mL/min; several buffers, NaCl concentrations and pH values (among them 20 mM MES pH 7.0, 150 mM NaCl); BSA (~66 kDa) and bovine beta-trypsin (~24 kDa) as size controls; absorbance at 230 nm.

Turning to ETE/P186G mutant (enzyme), the stoichiometry N (in general, the number of molecules, sites or subunits per partner or assembly) in assay [1] is 2.
With “Staphylococcus aureus exfoliative toxin E (enzyme)”, the stoichiometry N in assay [2], in assay [3] and in assay [4] was 2 throughout.
